Results from paper PMC11303871 (The Journal of Cell Biology, 2024).
Values belong to the binder of their own block, whether it stands above or below them.

Target: T1, 3xFlag::CYB-3 (in situ-tagged cyclin B3) (C. elegans, UniProt Q10654 1-385)
T1 sequence: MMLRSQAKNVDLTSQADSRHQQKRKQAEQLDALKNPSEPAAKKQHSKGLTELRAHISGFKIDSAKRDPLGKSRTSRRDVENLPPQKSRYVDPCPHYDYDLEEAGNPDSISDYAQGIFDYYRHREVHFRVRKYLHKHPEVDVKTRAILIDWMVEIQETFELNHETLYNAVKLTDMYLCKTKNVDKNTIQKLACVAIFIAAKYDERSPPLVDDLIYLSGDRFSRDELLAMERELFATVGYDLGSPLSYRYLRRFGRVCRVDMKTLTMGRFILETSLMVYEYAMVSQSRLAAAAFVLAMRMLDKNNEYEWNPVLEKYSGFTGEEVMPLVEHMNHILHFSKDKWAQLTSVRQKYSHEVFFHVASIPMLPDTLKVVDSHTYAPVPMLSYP
Assay: co-IP

- amount of pT179 CDK-1 bound relative to CYB-1: ~1.3 fold
B1: CDK-1 phosphorylated at T179 (pT179 CDK-1), endogenous (enzyme)
chain: not shown
modifications: phosphothreonine at 179 (pT179)

- amount of CDK-1 bound relative to CYB-1: ~1.3 times
B2: CDK-1 (C. elegans Cdk1), endogenous (enzyme)
chain: not shown

- amount of pY33 CDK-1 bound relative to CYB-1: ~1.3 fold
B3: CDK-1 phosphorylated at Y33 (pY33 CDK-1), endogenous (enzyme)
chain: not shown
modifications: phosphotyrosine at 33 (pY33)
